Laboratory results reported in patent US20060024698, “Method to protect DNA ends” (published 2006).

T1: DdrA (DR0423) (Deinococcus radiodurans R1, UniProt Q9RX92 SEQ:1-208)
T1 sequence: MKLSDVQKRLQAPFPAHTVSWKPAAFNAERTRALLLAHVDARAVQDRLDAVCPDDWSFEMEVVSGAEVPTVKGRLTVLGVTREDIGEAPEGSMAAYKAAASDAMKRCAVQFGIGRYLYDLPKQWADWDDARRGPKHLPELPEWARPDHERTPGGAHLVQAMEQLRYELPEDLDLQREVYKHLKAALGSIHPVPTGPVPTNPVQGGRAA


Key:
DdrA (DR0423) [1] = target: T1, DdrA (DR0423); test: FP; KD,app; 1.0 nM DNA, 30 C, 30 min; details: tags: untagged, expressed in E. coli from pEAW298; chain copies: 8-10 subunit oligomer in solution by gel filtration (stated); label: 3' fluorescent tag
Description: FIG. 9 is a graph of fluorescence anisotropy data for DdrA binding to single-stranded DNA. Increasing concentrations of DdrA protein were incubated with 3′-fluorescently tagged DNA (1.0 nM) at 30° C. for 30 minutes. Samples were analyzed using the Beacons 2000 Fluorescence Polarization System and a curve was generated suing CURVE EXPERT 1.3 software. The K_{D,app} for each substrate is the concentration of DdrA when 50% of the DNA is bound as determined by the generated curve fit.

DdrA (DR0423) [2] = target: T1, DdrA (DR0423); test: EMSA; 4 uM DdrA; not disrupted by 1000-2000 fold excess of 5'-extension oligo; details: tags: untagged, expressed in E. coli from pEAW298; chain copies: 8-10 subunit oligomer in solution by gel filtration (stated); label: 3'-32P ddATP; 18 bp hairpin with 16 nt 3' single-strand extension
Description: Four sets of EMSA assays are presented, with the gels and electrophoresis conditions carefully matched. DNA substrate concentrations are 0.7 nM in each case, reported as total molecules. In each set, the first three lanes have show the effects of the indicated concentration of DdrA protein. […] In set D, the sixth and seventh lanes are identical to the third lane (with 4 μM DdrA protein), except that they have been challenged with a 1000-fold or 2000-fold excess of unlabeled oligo with a 5′ extension, respectively. The unlabeled challenge oligo is the same as that used in reaction set C. (FIG. 7A) Single-strand oligonucleotides (51 nucleotides in length), labelled on the 5′ end. (FIG. 7B) 5′ end-labeled duplex DNA fragments (51 bp). (FIG. 7C) 5′-end-labelled oligonucleotide, with a self-complementary sequence leading to the formation of an 18 bp hairpin and a 15 nucleotide 5′ single strand extension. (FIG. 7D) 3′ end-labelled oligonucleotide, with a self-complementary sequence leading to the formation of an 18 bp hairpin and a 16 nucleotide 3′ single strand extension. The sequences of the single strand extensions in the oligos used in sets C and D are matched, except that an extra adenosine residue has been added to the oligo used in set D during the labelling process.

Binder | Kd (DdrA (DR0423) [1]) [nM] | binding result (DdrA (DR0423) [2])
GGCCTCGCGGTAGCTGAGCTCGGAGCGCACGATTCGCACTGCTGATGTTC (ssDNA) [50 nt ssDNA] | 118 | 
hairpin with 3' extension (oligo A) (structured_DNA, 3'-terminal ddA added) DNA: TTAACGACCGTCGACCTGCAGGTCGACGGTCGTTAACGTCTCTCAGATTGT |  | binds
AAGCACAATTACCCACGC (ssDNA) [18 nt ssDNA] | 640 | 
GCGTGGGTAATTGTGCTTCAATGGACTGAC (ssDNA) [30 nt ssDNA] | 406 | 
